Source: patent US20220332804A1 (CSL INNOVATION, published 2022)
Substitutions are numbered along the chain they refer to.

Key:
Test in all cases: SPR; KD relative to WT C2;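 further: biacore SPR at 37 °C, anti-C2 mAbs captured on an anti-human IgG chip, alanine or serine C2 surface mutants tested, KD from 1:1 fit compared with wild-type C2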
human C2 I438A = target: T1, human C2 I438A (human, UniProt P06681 21-752)
T1 sequence: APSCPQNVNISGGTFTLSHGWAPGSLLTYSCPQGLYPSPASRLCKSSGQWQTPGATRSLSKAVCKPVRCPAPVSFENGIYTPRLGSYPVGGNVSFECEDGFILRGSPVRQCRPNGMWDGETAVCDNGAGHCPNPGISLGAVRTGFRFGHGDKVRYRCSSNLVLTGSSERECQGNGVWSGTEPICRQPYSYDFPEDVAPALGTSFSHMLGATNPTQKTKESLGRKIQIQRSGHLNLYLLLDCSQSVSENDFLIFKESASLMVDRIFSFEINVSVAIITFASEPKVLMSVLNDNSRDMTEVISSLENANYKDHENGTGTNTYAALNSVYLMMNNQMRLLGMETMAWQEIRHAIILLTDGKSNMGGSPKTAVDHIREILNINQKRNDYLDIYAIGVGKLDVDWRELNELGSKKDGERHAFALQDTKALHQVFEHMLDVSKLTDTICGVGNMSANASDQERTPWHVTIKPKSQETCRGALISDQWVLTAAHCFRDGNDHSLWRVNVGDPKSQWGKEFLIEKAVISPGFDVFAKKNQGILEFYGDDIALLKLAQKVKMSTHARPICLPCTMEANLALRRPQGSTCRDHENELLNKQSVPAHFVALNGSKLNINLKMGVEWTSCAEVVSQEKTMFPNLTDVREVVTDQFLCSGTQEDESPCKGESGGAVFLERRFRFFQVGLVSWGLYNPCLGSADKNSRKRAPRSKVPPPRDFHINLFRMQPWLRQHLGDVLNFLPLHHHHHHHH

human C2 M452A = target: T2, human C2 M452A (human, UniProt P06681 21-752)
T2 sequence: T1 sequence with A418I, M432A

human C2 T317A = target: T3, human C2 T317A (human, UniProt P06681 21-752)
T3 sequence: T1 sequence with T297A, A418I

human C2 N403A = target: T4, human C2 N403A (human, UniProt P06681 21-752)
T4 sequence: T1 sequence with N383A, A418I

- Fold diff (human C2 I438A): 1 fold
- Fold diff (human C2 M452A): 1 fold
- Fold diff (human C2 T317A): 1 fold
- Fold diff (human C2 N403A): 1 fold
B1: RF16-214 (antibody, V domains shown)
VH: EVQLLESGGGLVQPGGSLRLSCAASGFTFSWYQMMWVRQAPGKGLEWVSRIYPSGGGTAYADSVKGRFTISRDNSKNTLYLQMNSLRAEDTAVYYCARDAGYGDNWGQGTLVTVSS
VL: QSALTQPPSVSVSPGQTASITCSGDKLGEKYASWYQQKAGQSPVMVIYQDRKRPSGIPERFSGSNSGNTATLTISGTQAMDEADYYCQAWDTRAVVFGGGTKLTVLG
